According to the Human Domainome abundance scans (Beltran et al. 2025):
± gives the uncertainty stated by the source.

B1: FERM and PDZ domain-containing protein 4, residues 75 to 154; numbered along this chain, Q14CM0 (parent)
chain: APRKVEMRRDPVLGFGFVAGSEKPVVVRSVTPGGPSEGKLIPGDQIVMINDEPVSAAPRERVIDLVRSCKESILLTVIQP

Variants of: B1
Assay: abundance fitness (aPCA) (normalised: wild type 0, dead -1); higher = more abundant; growth selection in yeast, the domain comes from the species named
Conditions: Homo sapiens
E22I showed an abundance fitness of -0.336 ± 0.05.
For E22N, the abundance fitness was -0.125 ± 0.048.
Variant V30W has an abundance fitness of -0.756 ± 0.037.
For V30C, the abundance fitness was -0.102 ± 0.031.
V30A showed an abundance fitness of -0.499 ± 0.026.
With V30M the abundance fitness was -0.335 ± 0.035.
V30Y showed an abundance fitness of -0.521 ± 0.049.
Work on V30R yielded an abundance fitness of -0.914 ± 0.031.
With V30S the abundance fitness was -0.743 ± 0.035.
Work on V30L yielded an abundance fitness of -0.115 ± 0.024.
V30P showed an abundance fitness of -0.864 ± 0.055.
For V30K, the abundance fitness was -0.87 ± 0.056.
With V30I the abundance fitness was -0.081 ± 0.035.
Work on V30H yielded an abundance fitness of -0.967 ± 0.1.
Work on V30F yielded an abundance fitness of -0.416 ± 0.051.
In the case of V30D, the abundance fitness is reported as -0.804 ± 0.065.
For V30Q, the abundance fitness was -0.801 ± 0.052.
In the case of V30E, the abundance fitness is reported as -0.901 ± 0.048.
Variant V30T has an abundance fitness of -0.089 ± 0.029.
For G34F, the abundance fitness was -0.765 ± 0.081.
For G34D, the abundance fitness was -0.84 ± 0.061.
For G34H, the abundance fitness was -0.543 ± 0.077.
For G34L, the abundance fitness was -0.595 ± 0.032.
Work on G34E yielded an abundance fitness of -0.999 ± 0.065.
Work on G34M yielded an abundance fitness of -0.692 ± 0.051.
G34R gave an abundance fitness of -0.954 ± 0.039.
G34Q showed an abundance fitness of -0.802 ± 0.054.
Work on G34T yielded an abundance fitness of -0.066 ± 0.03.
Variant G34K has an abundance fitness of -1.02 ± 0.084.
Variant G34A has an abundance fitness of -0.157 ± 0.025.
G34N gave an abundance fitness of -1.07 ± 0.13.
With G34I the abundance fitness was -0.957 ± 0.13.
Work on G34C yielded an abundance fitness of -0.552 ± 0.041.
Variant G34P has an abundance fitness of -0.92 ± 0.058.
In the case of G34S, the abundance fitness is reported as -0.001 ± 0.025.
G20Y gave an abundance fitness of -0.067 ± 0.04.
G20L showed an abundance fitness of -0.116 ± 0.025.
Work on G20T yielded an abundance fitness of -0.061 ± 0.029.
G20C gave an abundance fitness of -0.094 ± 0.033.
G20Q gave an abundance fitness of -0.03 ± 0.033.
Work on G20W yielded an abundance fitness of -0.105 ± 0.026.
In the case of G20F, the abundance fitness is reported as -0.155 ± 0.045.
Work on G20N yielded an abundance fitness of -0.089 ± 0.047.
With G20D the abundance fitness was 0.017 ± 0.032.
Variant G20S has an abundance fitness of -0.002 ± 0.025.
With G20E the abundance fitness was 0.01 ± 0.027.
Variant G20H has an abundance fitness of -0.029 ± 0.047.
G20I showed an abundance fitness of -0.051 ± 0.05.
Variant G20K has an abundance fitness of -0.093 ± 0.032.
For V26A, the abundance fitness was -0.113 ± 0.025.
V26K gave an abundance fitness of -0.048 ± 0.028.
V26S gave an abundance fitness of -0.116 ± 0.025.
V26I showed an abundance fitness of -0.025 ± 0.043.
Variant V26C has an abundance fitness of -0.07 ± 0.033.
In the case of V26P, the abundance fitness is reported as -0.702 ± 0.042.
For V26W, the abundance fitness was -0.379 ± 0.029.
With V26Y the abundance fitness was -0.123 ± 0.043.
In the case of V26E, the abundance fitness is reported as -0.036 ± 0.026.
Work on V26L yielded an abundance fitness of -0.038 ± 0.024.
Work on V26Q yielded an abundance fitness of -0.011 ± 0.03.
V26M gave an abundance fitness of -0.012 ± 0.032.
With V26G the abundance fitness was -0.446 ± 0.023.
In the case of V26H, the abundance fitness is reported as -0.159 ± 0.044.
Variant V26D has an abundance fitness of -0.135 ± 0.039.
V26F gave an abundance fitness of -0.123 ± 0.043.
For V26T, the abundance fitness was 0.008 ± 0.028.
In the case of V27I, the abundance fitness is reported as -0.07 ± 0.039.
Work on V27K yielded an abundance fitness of -0.916 ± 0.073.
With V27G the abundance fitness was -0.938 ± 0.032.
Variant V27H has an abundance fitness of -0.878 ± 0.14.
With V27M the abundance fitness was -0.799 ± 0.063.
Work on V27C yielded an abundance fitness of -0.282 ± 0.038.
Work on V27T yielded an abundance fitness of -0.705 ± 0.053.
Variant V27S has an abundance fitness of -0.947 ± 0.053.
V27A showed an abundance fitness of -0.591 ± 0.033.
Work on V27L yielded an abundance fitness of -0.584 ± 0.031.
With V27E the abundance fitness was -0.725 ± 0.043.
V27F gave an abundance fitness of -0.79 ± 0.092.
Variant V27W has an abundance fitness of -1.1 ± 0.068.
Work on V27R yielded an abundance fitness of -0.958 ± 0.037.
V27Y gave an abundance fitness of -1.02 ± 0.17.
With V27D the abundance fitness was -0.802 ± 0.065.
V27N gave an abundance fitness of -0.851 ± 0.099.
Variant V27P has an abundance fitness of -0.764 ± 0.058.
In the case of K23C, the abundance fitness is reported as -0.035 ± 0.035.
For K23W, the abundance fitness was -0.076 ± 0.028.
With K23Q the abundance fitness was -0.039 ± 0.034.
With K23A the abundance fitness was -0.097 ± 0.026.
In the case of K23P, the abundance fitness is reported as -0.317 ± 0.033.
K23N gave an abundance fitness of 0.015 ± 0.041.
Work on K23V yielded an abundance fitness of -0.136 ± 0.026.
Work on K23D yielded an abundance fitness of -0.042 ± 0.039.
Variant K23I has an abundance fitness of -0.085 ± 0.05.
In the case of K23H, the abundance fitness is reported as -0.026 ± 0.043.
K23F showed an abundance fitness of -0.066 ± 0.04.
K23L showed an abundance fitness of -0.066 ± 0.025.
K23T showed an abundance fitness of -0.037 ± 0.031.
K23M showed an abundance fitness of -0.01 ± 0.032.
F17G showed an abundance fitness of -0.897 ± 0.032.
Variant F17C has an abundance fitness of -0.637 ± 0.044.
Variant F17H has an abundance fitness of -0.806 ± 0.074.
Variant F17I has an abundance fitness of -0.322 ± 0.043.
F17Y showed an abundance fitness of -0.395 ± 0.052.
Work on F17D yielded an abundance fitness of -0.921 ± 0.077.
In the case of F17N, the abundance fitness is reported as -0.923 ± 0.098.
Variant F17L has an abundance fitness of -0.294 ± 0.026.
With F17T the abundance fitness was -0.887 ± 0.054.
F17P gave an abundance fitness of -0.916 ± 0.066.
With F17W the abundance fitness was -0.218 ± 0.026.
With F17E the abundance fitness was -0.832 ± 0.043.
With F17K the abundance fitness was -0.842 ± 0.051.
In the case of F17V, the abundance fitness is reported as -0.704 ± 0.031.
For F17M, the abundance fitness was -0.381 ± 0.035.
Work on F17A yielded an abundance fitness of -0.857 ± 0.041.
With R28L the abundance fitness was -0.036 ± 0.024.
R28M gave an abundance fitness of -0.065 ± 0.029.
R28E showed an abundance fitness of 0.034 ± 0.025.
With R28H the abundance fitness was -0.08 ± 0.039.
Variant R28V has an abundance fitness of -0.089 ± 0.022.
With R28Q the abundance fitness was 0.027 ± 0.031.
Variant R28C has an abundance fitness of -0.136 ± 0.032.
R28D showed an abundance fitness of -0.038 ± 0.034.
With R28N the abundance fitness was 0.001 ± 0.038.
For R28T, the abundance fitness was 0.005 ± 0.029.
For R28K, the abundance fitness was -0.002 ± 0.03.
R28Y showed an abundance fitness of -0.137 ± 0.037.
For R28F, the abundance fitness was -0.134 ± 0.043.
Variant R28A has an abundance fitness of -0.032 ± 0.023.
With R28P the abundance fitness was -0.725 ± 0.052.
R28G gave an abundance fitness of -0.014 ± 0.02.
P32A showed an abundance fitness of -0.029 ± 0.026.
With P32M the abundance fitness was -0.039 ± 0.031.
In the case of P32N, the abundance fitness is reported as -0.058 ± 0.029.
In the case of P32T, the abundance fitness is reported as -0.036 ± 0.026.
P32W showed an abundance fitness of -0.247 ± 0.037.
With P32L the abundance fitness was -0.083 ± 0.023.
For P32V, the abundance fitness was -0.051 ± 0.025.
For P32D, the abundance fitness was -0.075 ± 0.032.
Variant P32I has an abundance fitness of -0.08 ± 0.031.
For P32H, the abundance fitness was -0.046 ± 0.028.
P32R showed an abundance fitness of -0.05 ± 0.024.
P32E gave an abundance fitness of -0.037 ± 0.034.
Variant P32G has an abundance fitness of -0.098 ± 0.028.
P32F showed an abundance fitness of -0.206 ± 0.033.
Work on P32Q yielded an abundance fitness of -0.018 ± 0.03.
With P32Y the abundance fitness was -0.136 ± 0.031.
P32S gave an abundance fitness of -0.032 ± 0.024.
For P32K, the abundance fitness was -0.027 ± 0.029.
Work on S29N yielded an abundance fitness of -0.032 ± 0.041.
S29V showed an abundance fitness of -0.136 ± 0.023.
Variant S29H has an abundance fitness of -0.139 ± 0.039.
Variant S29Q has an abundance fitness of -0.026 ± 0.027.
Variant S29T has an abundance fitness of -0.029 ± 0.027.
S29G showed an abundance fitness of -0.055 ± 0.021.
With S29D the abundance fitness was -0.034 ± 0.037.
S29R showed an abundance fitness of -0.069 ± 0.02.
S29P showed an abundance fitness of -0.826 ± 0.044.
S29I gave an abundance fitness of -0.221 ± 0.047.
S29E gave an abundance fitness of 0.007 ± 0.026.
S29W showed an abundance fitness of -0.22 ± 0.024.
S29F showed an abundance fitness of -0.197 ± 0.039.
With S29Y the abundance fitness was -0.189 ± 0.039.
S29A showed an abundance fitness of -0.074 ± 0.024.
Work on S29L yielded an abundance fitness of -0.152 ± 0.023.
With S29K the abundance fitness was -0.059 ± 0.032.
S29M gave an abundance fitness of -0.083 ± 0.029.
S29C gave an abundance fitness of -0.136 ± 0.03.
